The text below walks through data of publication PMC9798254.

Substrate in series [1]: O=P(O)(O)OC[C@@H](O)[C@H]1O[C@@H](OP(=O)(O)O)[C@@H](O)[C@@H](O)[C@@H]1O
Briefly: purified protein. To be noted: 100 mM Tris/HCl pH 7.8, 5 mM MgCl2, 25°C.

Substrate in series [2]: O=P(O)(O)OC[C@@H](O)[C@H]1O[C@H](OP(=O)(O)O)[C@@H](O)[C@@H](O)[C@@H]1O
Put plainly: purified protein. The settings on record: 100 mM Tris/HCl pH 7.8, 5 mM MgCl2, 25°C.

For orientation: Km means the substrate concentration at which the rate is half of its maximum. As usually defined, the kcat is the maximal rate divided by the concentration of active sites. What is called kcat/Km is the second-order rate constant that governs catalysis at low substrate concentration.

B1: ecGmhB (Escherichia coli K-12) (protein)
chain: MAKSVPAIFLDRDGTINVDHGYVHEIDNFEFIDGVIDAMRELKKMGFALVVVTNQSGIARGKFTEAQFETLTEWMDWSLADRDVDLDGIYYCPHHPQGSVEEFRQVCDCRKPHPGMLLSARDYLHIDMAASYMVGDKLEDMQAAVAANVGTKVLVRTGKPITPEAENAADWVLNSLADLPQAIKKQQKPAQ
As for B1, in series [1], the Michaelis-Menten constant (Km) is 2.3 ± 0.3 µM, the kcat came to 35.7 ± 1.1 s⁻¹ and the specificity constant (kcat/Km) came to 1.55e+07 M⁻¹ s⁻¹. Besides, in series [2], the Michaelis constant (Km) came out at 117 ± 15 µM, the kcat is 3.5 ± 0.2 s⁻¹ and the kcat/Km came out at 29900 M⁻¹ s⁻¹.
